Results as given in the supplement of paper PMC10567573.

B1: MIA2 (parent)
chain: SVIEPVQESSFRSRKIAVEDENDL

Variants of: B1
Assay: protein stability index of a GFP-peptide fusion (GPS, HEK-293T) (PSI 1-6); higher = more stable
Details: c terminus: a fixed tail appended
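Further: lentivirally expressed fusions sorted by FACS into six bins by GFP to DsRed ratio, PSI derived from sequencing read proportions per bin multiplied by bin number.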

Variant	protein stability index
SVIEVVQESSFRSRKIAVEDENDL [P5V]	4.95
SVIEWVQESSFRSRKIAVEDENDL [P5W]	3.49
SVIEYVQESSFRSRKIAVEDENDL [P5Y]	3.78
SVIEPAQESSFRSRKIAVEDENDL [V6A]	5.31
SVIEPCQESSFRSRKIAVEDENDL [V6C]	5.66
SVIEPDQESSFRSRKIAVEDENDL [V6D]	5.65
SVIEPEQESSFRSRKIAVEDENDL [V6E]	5.76
SVIEPFQESSFRSRKIAVEDENDL [V6F]	4.94
SVIEPGQESSFRSRKIAVEDENDL [V6G]	5.75
SVIEPHQESSFRSRKIAVEDENDL [V6H]	5.48
SVIEPIQESSFRSRKIAVEDENDL [V6I]	5.34
SVIEPKQESSFRSRKIAVEDENDL [V6K]	5.62
SVIEPLQESSFRSRKIAVEDENDL [V6L]	5.16
SVIEPMQESSFRSRKIAVEDENDL [V6M]	5.46
SVIEPNQESSFRSRKIAVEDENDL [V6N]	4.92
SVIEPPQESSFRSRKIAVEDENDL [V6P]	5.18
SVIEPQQESSFRSRKIAVEDENDL [V6Q]	5.37
SVIEPRQESSFRSRKIAVEDENDL [V6R]	5.27
SVIEPSQESSFRSRKIAVEDENDL [V6S]	5.27
SVIEPTQESSFRSRKIAVEDENDL [V6T]	5.39
SVIEPWQESSFRSRKIAVEDENDL [V6W]	4.53
SVIEPYQESSFRSRKIAVEDENDL [V6Y]	4.91
SVIEPVAESSFRSRKIAVEDENDL [Q7A]	4.21
SVIEPVCESSFRSRKIAVEDENDL [Q7C]	3.93

Variant	protein stability index
SVIEPVDESSFRSRKIAVEDENDL [Q7D]	5.25
SVIEPVEESSFRSRKIAVEDENDL [Q7E]	5.25
SVIEPVFESSFRSRKIAVEDENDL [Q7F]	4.46
SVIEPVGESSFRSRKIAVEDENDL [Q7G]	5.13
SVIEPVHESSFRSRKIAVEDENDL [Q7H]	5.34
SVIEPVIESSFRSRKIAVEDENDL [Q7I]	4.93
SVIEPVKESSFRSRKIAVEDENDL [Q7K]	4.98
SVIEPVLESSFRSRKIAVEDENDL [Q7L]	5.29
SVIEPVMESSFRSRKIAVEDENDL [Q7M]	5.04
SVIEPVNESSFRSRKIAVEDENDL [Q7N]	4.82
SVIEPVPESSFRSRKIAVEDENDL [Q7P]	5.49
SVIEPVRESSFRSRKIAVEDENDL [Q7R]	4.92
SVIEPVSESSFRSRKIAVEDENDL [Q7S]	5.46
SVIEPVTESSFRSRKIAVEDENDL [Q7T]	5.32
SVIEPVVESSFRSRKIAVEDENDL [Q7V]	5.28
SVIEPVWESSFRSRKIAVEDENDL [Q7W]	5.13
SVIEPVYESSFRSRKIAVEDENDL [Q7Y]	5.21
SVIEPVQASSFRSRKIAVEDENDL [E8A]	5.28
SVIEPVQCSSFRSRKIAVEDENDL [E8C]	4.97
SVIEPVQDSSFRSRKIAVEDENDL [E8D]	4.48
SVIEPVQFSSFRSRKIAVEDENDL [E8F]	4.63
SVIEPVQGSSFRSRKIAVEDENDL [E8G]	5.28
SVIEPVQHSSFRSRKIAVEDENDL [E8H]	5.02
SVIEPVQISSFRSRKIAVEDENDL [E8I]	4.83

Variant	protein stability index
SVIEPVQKSSFRSRKIAVEDENDL [E8K]	4.78
SVIEPVQLSSFRSRKIAVEDENDL [E8L]	5.02
SVIEPVQMSSFRSRKIAVEDENDL [E8M]	4.58
SVIEPVQNSSFRSRKIAVEDENDL [E8N]	5.64
SVIEPVQPSSFRSRKIAVEDENDL [E8P]	5.27
SVIEPVQQSSFRSRKIAVEDENDL [E8Q]	5.1
SVIEPVQRSSFRSRKIAVEDENDL [E8R]	4.79
SVIEPVQSSSFRSRKIAVEDENDL [E8S]	4.42
SVIEPVQTSSFRSRKIAVEDENDL [E8T]	4.52
SVIEPVQVSSFRSRKIAVEDENDL [E8V]	5.14
SVIEPVQWSSFRSRKIAVEDENDL [E8W]	4.66
SVIEPVQYSSFRSRKIAVEDENDL [E8Y]	4.49
SVIEPVQEASFRSRKIAVEDENDL [S9A]	5.35
SVIEPVQECSFRSRKIAVEDENDL [S9C]	5.09
SVIEPVQEDSFRSRKIAVEDENDL [S9D]	5.35
SVIEPVQEESFRSRKIAVEDENDL [S9E]	5.05
SVIEPVQEFSFRSRKIAVEDENDL [S9F]	4.64
SVIEPVQEGSFRSRKIAVEDENDL [S9G]	5.08
SVIEPVQEHSFRSRKIAVEDENDL [S9H]	4.98
SVIEPVQEISFRSRKIAVEDENDL [S9I]	5.31
SVIEPVQEKSFRSRKIAVEDENDL [S9K]	5.44
SVIEPVQELSFRSRKIAVEDENDL [S9L]	4.48
SVIEPVQEMSFRSRKIAVEDENDL [S9M]	4.37
SVIEPVQENSFRSRKIAVEDENDL [S9N]	5.09

Variant	protein stability index
SVIEPVQEPSFRSRKIAVEDENDL [S9P]	5.66
SVIEPVQEQSFRSRKIAVEDENDL [S9Q]	5.35
SVIEPVQERSFRSRKIAVEDENDL [S9R]	5.45
SVIEPVQETSFRSRKIAVEDENDL [S9T]	5.19
SVIEPVQEVSFRSRKIAVEDENDL [S9V]	5.19
SVIEPVQEWSFRSRKIAVEDENDL [S9W]	4.86
SVIEPVQEYSFRSRKIAVEDENDL [S9Y]	5.25
SVIEPVQESAFRSRKIAVEDENDL [S10A]	5.49
SVIEPVQESCFRSRKIAVEDENDL [S10C]	5.34
SVIEPVQESDFRSRKIAVEDENDL [S10D]	5.54
SVIEPVQESEFRSRKIAVEDENDL [S10E]	5.27
SVIEPVQESFFRSRKIAVEDENDL [S10F]	4.74
SVIEPVQESGFRSRKIAVEDENDL [S10G]	5.78
SVIEPVQESHFRSRKIAVEDENDL [S10H]	5.77
SVIEPVQESIFRSRKIAVEDENDL [S10I]	4.28
SVIEPVQESKFRSRKIAVEDENDL [S10K]	5.54
SVIEPVQESLFRSRKIAVEDENDL [S10L]	4.72
SVIEPVQESMFRSRKIAVEDENDL [S10M]	4.89
SVIEPVQESNFRSRKIAVEDENDL [S10N]	5.28
SVIEPVQESPFRSRKIAVEDENDL [S10P]	5.02
SVIEPVQESQFRSRKIAVEDENDL [S10Q]	5.67
SVIEPVQESRFRSRKIAVEDENDL [S10R]	5.02
